{
  "source": "patent US5847088A",
  "about": "“Antibodies specific for platelet-activating factor acetylhydrolase” (ICOS Corporation, priority 1995, dated 1998)",
  "molecules": {"B1": {"name": "PAF-AH: Recombinant human plasma platelet-activating factor acetylhydrolase (beginning at Ile42 of SEQ ID NO:8) expressed in E. coli (protein, UniProt Q13093 22-441, looked up)", "Platelet-activating factor …": "FDWQYINPVAHMKSSAWVNKIQVLMAAASFGQTKIPRGNGPYSVGCTDLMFDHTNKGTFLRLYYPSQDNDRLDTLWIPNKEYFWGLSKFLGTHWLMGNILRLLFGSMTTPANWNSPLRPGEKYPLVVFSHGLGAFRTLYSAIGIDLASHGFIVAAVEHRDRSASATYYFKDQSAAEIGDKSWLYLRTLKQEEETHIRNEQVRQRAKECSQALSLILDIDHGKPVKNALDLKFDMEQLKDSIDREKIAVIGHSFGGATVIQTLSEDQRFRCGIALDAWMFPLGDEVYSRIPQPLFFINSEYFQYPANIIKMKKCYSPDKERKMITIRGSVHQNFADFTFATGKIIGHMLKLKGDIDSNVAIDLSNKASLAFLQKHLGLHKDFDQWDCLIEGDDENLIPGTNINTTNQHIMLQNSSGIEKYN"}},
  "key": {"[1]": {"tested_on": "PAF-induced pleurisy", "assay": "PAF-induced pleurisy (Evans blue vascular leakage)", "assay_type": "in vivo, rat", "conditions": "300 μl PAF-AH (1500 μmol/ml/hour) IV 15 minutes before 2.0 nmol PAF, 1 hour", "procedure": "Fifteen minutes later the rats received an 100 μl injection of PAF (2.0 nmol) into the pleural space. One hour following PAF challenge, rats were sacrificed and the pleural fluid was collected by rinsing the cavity with 3 ml heparinized phosphate buffered saline. The degree of vascular leak was determined by the quantity of Evans blue dye in the pleural space which was quantitated by absorbance at 620 nm."}, "[2]": {"tested_on": "zymosan A-induced edema", "assay": "Rat foot edema model, zymosan A-induced", "assay_type": "in vivo", "conditions": "2000 U IV 15 minutes before zymosan A, 2 hours", "procedure": "Six to eight-week-old female Long Evans rats (Charles River, Wilmington, Mass.), weighing 180-200 grams, were used for all experiments. Prior to experimental manipulations, animals were anesthetized with a mixture of the anesthetics Ketaset (Fort Dodge Laboratories, Fort Dodge, Iowa), Rompun (Miles, Shawnee Mission, Kans.), and Ace Promazine (Aveco, Fort Dodge, Iowa) administered subcutaneously at approximately 2.5 mg Ketaset, 1.6 mg Rompun, 0.2 mg Ace Promazine per animal per dose. Edema was induced in the foot by administration of either PAF or zymosan as follows. […] Animals received 50 μl PAF (final dose of 0.96 nmoles) subcutaneously between the hind foot pads, and edema was assessed after 1 hour and again after 2 hours in some experiments. […] Animals received 50 μl of zymosan (final dose of 500 μg) subcutaneously between the hind foot pads and edema was assessed after 2 hours.\nEdema was quantitated by measuring the foot volume immediately prior to administration of PAF or zymosan and at indicated time point post-challenge with PAF or zymosan. Edema is expressed as the increase in foot volume in milliliters. […]\nRats (N=4 per group) were pretreated IV with either PAF-AH (2000 U in 300 μl carrier) or carrier alone. Fifteen minutes after pretreatment, groups received either PAF or zymosan A, and foot volume was assessed after 1 and 2 hours, respectively."}, "[3]": {"tested_on": "PAF mediated lung injury", "assay": "Guinea pig model of ARDS (PAF infusion, BAL protein)", "assay_type": "in vivo", "procedure": "Based on the above observations, an ARDS model in guinea pigs was developed. A cannula is placed into the jugular vein of anaesthetized male Hartly guinea pigs (approximately 350-400 grams) and PAF diluted in a 500 μl volume of phosphate buffered saline with 0.25% bovine serum albumin as a carrier (PBS-BSA) is infused over a 15 minute period of time at a total dosage ranging from 100-400 ng/kg. At various intervals following PAF infusion, animals are sacrificed and lung tissue is collected. In guinea pigs infused with PAF, dose dependent lung damage and inflammation is clearly evident by 15 minutes and continues to be present at 60 minutes. Neutrophils and red blood cells are present in the alveolar spaces of PAF treated guinea pigs but absent in control or sham infused animals. Evidence of epithelial cell damage is also evident and reminiscent of hyaline membrane formation in human ARDS patients.\nGroups of guinea pigs were pretreated with either PAF-AH (2000 units in 500 μl) or 500 μl of the PAF-AH buffer only. Fifteen minutes later these guinea pigs were infused with 400 ng/kg PAF in a 500 μl volume, infused over a 15 minute period. In addition, a sham group of guinea pigs was infused with 500 μl of PBS-BSA. […] To determine protein concentration in the BAL, samples were diluted 1:10 in saline and the OD 280 was determined."}, "[4]": {"tested_on": "PAF-induced necrotizing enterocolitis", "assay": "Rat model of PAF-induced necrotizing enterocolitis (NEC)", "assay_type": "in vivo", "procedure": "The small intestines were removed after 2 hours from the ligament of Trietz to the cecum, thoroughly washed with cold saline and examined grossly. Samples were obtained from microscopic examination from the upper, middle and lower portions of the small intestine. The tissues were fixed in buffered formalin and the sample processed for microscopic examination by staining with hematoxylin and eosin. The experiment was repeated three times.\nIn order to determine if the protection against NEC in rats was dose dependent, animals were treated with increasing doses of PAF-AH 15 minutes prior to PAF administration. Initially, PAF-AH, ranging from 25.5 to 25,500 units were administered into the tail vein of rats. PAF (0.4 μg in 0.2 ml of BSA-saline) was subsequently injected into the abdominal aorta 15 minutes after the administration of PAF-AH. The small intestine was removed and examined for NEC development 2 hours after PAF administration. Plasma PAF-AH activity was determined prior to the exogenous administration of the enzyme, and 15 minutes and 21/4 hours after PAF-AH administration. The results are the mean of 2-5 animals in each group.\nIn order to determine the length of time exogenous PAF-AH afforded protection against development of NEC, rats were injected once with a fixed amount of the enzyme via the tail vein and subsequently challenged with PAF at various time points. PAF-AH (8,500 units in 0.3 ml) or vehicle alone was administered into the tail vein of rats, and PAF (0.36 μg in 0.2 ml of BSA-saline) was injected into the abdominal aorta at the various times after the enzyme administration. The small intestines were removed 2 hours after the PAF injection for gross and histological examinations in order to evaluate for NEC development. Plasma PAF-AH activities were determined at various times after enzyme administration and two hours after PAF administration. The mean value±standard error for enzyme activity was determined for each group.\nIn order to determine if administration of PAF-AH was capable of reversing development of NEC induced by PAF injection, 25,500 units of enzyme was administered via injection into the vena cava two minutes following PAF administration (0.4 μg)."}},
  "data": [
    {"molecule": "B1", "values": [
      {"measurement": "reduction in inflammation (vascular leakage, Evans blue in pleural space)", "setting": "[1]", "value": "> 80", "unit": "%"},
      {"measurement": "effect on zymosan induced edema", "setting": "[2]", "value": "failed to block"},
      {"measurement": "BAL fluid protein concentration", "setting": "[3]; 2000 units 15 minutes before 400 ng/kg PAF infusion", "value": "1.13 ± 0.25", "unit": "mg/mL"},
      {"measurement": "protection against PAF mediated lung injury", "setting": "[3]; 2000 units pretreatment", "value": "completely protect"},
      {"measurement": "NEC development, PAF challenge within the first eight hours after injection", "setting": "[4]; 8,500 units IV once", "value": "none of the rats developed NEC"},
      {"measurement": "animals developing NEC, PAF challenge at 24 and 48 hours after injection", "setting": "[4]; 8,500 units IV once", "value": 100, "unit": "%"},
      {"measurement": "protection against NEC", "setting": "[4]; 25,500 units IV followed by PAF injection", "value": "completely protected"},
      {"measurement": "gross findings of bowel, PAF-AH in the absence of PAF", "setting": "[4]; 25,500 units IV, no PAF", "value": "no effect on the gross findings"},
      {"measurement": "NEC development, enzyme given 15 minutes after PAF", "setting": "[4]; 25,500 units into vena cava", "value": "all animals developed NEC"},
      {"measurement": "NEC development, enzyme given two minutes following PAF", "setting": "[4]; 25,500 units into vena cava, PAF 0.4 μg", "value": "None of the animals developed NEC"},
      {"measurement": "gross findings of bowel", "setting": "[4]; 25,500 units via tail vein 15 minutes prior to PAF into aorta", "value": "the bowel appeared to be normal"},
      {"measurement": "lowest protective amount of enzyme against NEC", "setting": "[4]; IV 15 minutes prior to PAF 0.4 μg", "value": 2040, "unit": "units"},
      {"measurement": "NEC development at low doses", "setting": "[4]; less than 2,000 units of the enzyme", "value": "developed NEC"}
    ]}
  ]
}
